According to publication PMC13534702, “Polo/PLK1 phosphorylation relieves Centrosomin/Cnn autoinhibition to promote centrosome scaffold assembly” (The EMBO Journal, 2026):
Substitutions are numbered along the chain they refer to. Names and notes keep the numbering of the source.

T1: Full-length SPD-5-GFP (C. elegans), P91349
T1 chain: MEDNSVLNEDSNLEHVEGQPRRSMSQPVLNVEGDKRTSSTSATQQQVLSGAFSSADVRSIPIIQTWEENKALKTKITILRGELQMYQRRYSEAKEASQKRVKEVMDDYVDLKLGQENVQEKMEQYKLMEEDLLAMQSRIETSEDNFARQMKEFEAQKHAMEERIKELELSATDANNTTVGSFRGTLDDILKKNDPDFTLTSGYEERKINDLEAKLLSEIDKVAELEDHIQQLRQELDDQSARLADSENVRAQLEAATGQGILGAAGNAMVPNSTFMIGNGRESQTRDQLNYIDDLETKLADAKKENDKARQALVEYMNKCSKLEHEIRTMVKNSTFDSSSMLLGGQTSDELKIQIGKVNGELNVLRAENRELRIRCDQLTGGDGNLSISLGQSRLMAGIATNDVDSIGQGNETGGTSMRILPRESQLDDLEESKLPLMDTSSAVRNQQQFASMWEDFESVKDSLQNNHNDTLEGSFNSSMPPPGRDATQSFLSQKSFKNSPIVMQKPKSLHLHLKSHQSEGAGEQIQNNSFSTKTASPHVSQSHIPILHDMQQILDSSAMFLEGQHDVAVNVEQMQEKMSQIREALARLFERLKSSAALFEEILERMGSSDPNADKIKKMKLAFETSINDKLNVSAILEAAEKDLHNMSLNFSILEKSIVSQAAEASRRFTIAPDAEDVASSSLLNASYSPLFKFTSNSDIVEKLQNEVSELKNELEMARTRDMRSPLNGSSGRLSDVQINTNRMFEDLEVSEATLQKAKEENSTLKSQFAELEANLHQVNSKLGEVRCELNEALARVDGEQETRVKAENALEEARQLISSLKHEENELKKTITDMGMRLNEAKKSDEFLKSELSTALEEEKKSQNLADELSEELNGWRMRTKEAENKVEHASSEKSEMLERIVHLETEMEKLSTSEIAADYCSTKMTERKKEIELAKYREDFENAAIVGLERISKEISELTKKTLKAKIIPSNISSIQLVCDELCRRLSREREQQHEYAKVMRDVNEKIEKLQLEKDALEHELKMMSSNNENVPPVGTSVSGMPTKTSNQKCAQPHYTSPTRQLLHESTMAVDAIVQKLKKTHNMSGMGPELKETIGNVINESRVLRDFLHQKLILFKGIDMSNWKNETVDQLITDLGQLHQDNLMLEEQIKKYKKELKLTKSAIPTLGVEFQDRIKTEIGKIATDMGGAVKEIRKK

T2: MBP-Cnn_(490-608) 2E (S567E/S571E) (Drosophila melanogaster, UniProt P54623-2 490-608, S567E | S571E)
T2 construct: also called 2E mutant; source: E. coli BL21 (DE3), purified; not shown: MBP, N-terminal, kept
T2 sequence (looked up): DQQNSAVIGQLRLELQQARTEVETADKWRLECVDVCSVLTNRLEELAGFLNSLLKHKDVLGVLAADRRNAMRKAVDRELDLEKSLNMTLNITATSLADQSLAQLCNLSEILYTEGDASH

T3: Cnn_(490-608), tag cleaved (SEC-MALS) (Drosophila melanogaster, UniProt P54623-2 490-608)
T3 construct: also called PReMΔH1ΔNTH2; source: E. coli BL21 (DE3), purified, tag cleaved for SEC-MALS; not shown: His6, N-terminal, cleaved; MBP, N-terminal, cleaved
T3 sequence (looked up): T2 sequence (looked up) with E78S, E82S

B1: Full-length Cnn-GFP (natural protein, Drosophila melanogaster, UniProt P54623-2 1-1148, looked up)
chain: MDQSKQVLRDYCGDGNGTCASSLKEITLIETVTSFLEENGAAEIDRRVLRKLAEALSKSIDDTSPGALQDVTMENSYASFDVPRPPGGGNSPLPSQGRSVRELEEQMSALRKENFNLKLRIYFLEEGQPGARADSSTESLSKQLIDAKIEIATLRKTVDVKMELLKDAARAISHHEELQRKADIDSQAIIDELQEQIHAYQMAESGGQPVENIAKTRKMLRLESEVQRLEEELVNIEARNVAARNELEFMLAERLESLTACEGKIQELAIKNSELVERLEKETASAESSNANRDLGAQLADKICELQEAQEKLKERERIHEQACRTIQKLMQKLSSQEKEIKKLNQENEQSANKENDCAKTVISPSSSGRSMSDNEASSQEMSTNLRVRYELKINEQEEKIKQLQTEVKKKTANLQNLVNKELWEKNREVERLTKLLANQQKTLPQISEESAGEADLQQSFTEAEYMRALERNKLLQRKVDVLFQRLADDQQNSAVIGQLRLELQQARTEVETADKWRLECVDVCSVLTNRLEELAGFLNSLLKHKDVLGVLAADRRNAMRKAVDRSLDLSKSLNMTLNITATSLADQSLAQLCNLSEILYTEGDASHKTFNSHEELHAATSMAPTVENLKAENKALKKELEKRRSSEGQRKERRSLPLPSQQFDNQSESEAWSEPDRKVSLARIGLDETSNSLAAPEQAISESESEGRTCATRQDRNRNSERIAQLEEQIAQKDERMLNVQCQMVELDNRYKQEQLRCLDITQQLEQLRAINEALTADLHAIGSHEEERMVELQRQLELKNQQIDQLKLAHSTLTADSQITEMELQALQQQMQEIEQLHADSVETLQSQLQKLKLDAVQQLEEHERLHREALERDWVALTTYQEQAQQLLELQRSLDYHQENEKELKQTLVENELATRALKKQLDESTLQASKAVMERTKAYNDKLQLEKRSEELRLQLEALKEEHQKLLQKRSNSSDVSQSGYTSEEVAVPMGPPSGQATTCKQAAAAVLGQRVNTSSPDLGIESDAGRISSVEVSNAQRAMLKTVEMKTEGSASPKAKSEESTSPDSKSNVATGAATVHDCAKVDLENAELRRKLIRTKRAFEDTYEKLRMANKAKAQVEKDIKNQILKTHNVLRNVRSNMENEL
notes: Centrosomin (Cnn), Drosophila melanogaster, full length, synthesised gene; also called Cnn-WT; not shown: MBP, N-terminal, cleaved; mGFP, C-terminal, kept; His10, C-terminal, cleaved
B2: Full-length SPD-5-GFP, P91349 1-1198 (natural protein)
chain: T1 chain
B3: MBP-Cnn_(490-608) WT (domain or fragment, Drosophila melanogaster, UniProt P54623-2 490-608, looked up)
chain: T2 sequence (looked up) with E78S, E82S
notes: I take the same protein to have been used there; source: E. coli BL21 (DE3), purified; not shown: MBP, N-terminal, kept
B4: MBP-Cnn_(490-608) 2A (S567A/S571A) (domain or fragment, Drosophila melanogaster, UniProt P54623-2 490-608, looked up)
chain: T2 sequence (looked up) with E78A, E82A
notes: also called 2A-mutant PReM; source: E. coli BL21 (DE3), purified; not shown: MBP, N-terminal, kept
B5: Drosophila Cnn CM2 domain (domain or fragment, Drosophila melanogaster, UniProt P54623-2 1082-1148, looked up)
chain: HDCAKVDLENAELRRKLIRTKRAFEDTYEKLRMANKAKAQVEKDIKNQILKTHNVLRNVRSNMENEL
notes: the EM methods print 1077-1148; The methods say that the N-terminal tag was cleaved for SEC-MALS, crystallisation or further use; also called DmCM2; fly CM2; source: E. coli BL21 (DE3), purified

Key:
[1] = target: the molecule itself; assay: mass photometry; full-length GFP fusions in solution; 20 mM HEPES, 150 mM KCl, pH 7.25; low nanomolar concentration (10 nM final by the procedure of the standards)
[2] = target: T1, Full-length SPD-5-GFP (C. elegans), …; assay: as above; settings: remark: other sources report otherwise
[3] = target: the molecule itself; assay: SEC; MBP-Cnn 490-608 variants run alone; absorbance at 280 nm; size judged from the elution volume
[4] = target: B3; assay: SEC; PReM domain (Cnn 490-608) variants mixed with CM2; fractions checked on SDS gels; settings: both partners purified
[5] = target: T2, MBP-Cnn_(490-608) 2E (S567E/S571E); assay: as above; settings: both partners purified
[6] = target: T3, Cnn_(490-608), tag cleaved (SEC-MALS); assay: SEC-MALS; Cnn 490-608 mixed with CM2; Superdex 75 or Superdex 200 10/300 Increase; 20 mM Tris pH 7.5, 150 mM NaCl, 0.5 mM TCEP; 0.5 mL/min; fraction checked on an SDS gel; settings: both partners purified

Binder: B1
stoichiometry N [1]: 2

Binder: B2
stoichiometry N [2]: 2

Binder: B3
stoichiometry N [3]: 2

Binder: B4
stoichiometry N [3]: 2

Binder: B5
binding result [4]: binds
binding result [5]: binds
binding result [6]: binds
